B1: Zinc finger protein 774 (Homo sapiens), Q6NX45 (parent)
chain: MWLGTSGKSGLPGHCLENPLQECHPAQLEEWALKGISRPSVISQPEQKEEPWVLPLQNFEARKIPRESHTDCEHQVAKLNQDNSETAEQCGTSSERTNKDLSHTLSWGGNWEQGLELEGQHGTLPGEGQLESFSQERDLNKLLDGYVGEKPMCAECGKSFNQSSYLIRHLRTHTGERPYTCIECGKGFKQSSDLVTHRRTHTGEKPYQCKGCEKKFSDSSTLIKHQRTHTGERPYECPECGKTFGRKPHLIMHQRTHTGEKPYACLECHKSFSRSSNFITHQRTHTGVKPYRCNDCGESFSQSSDLIKHQRTHTGERPFKCPECGKGFRDSSHFVAHMSTHSGERPFSCPDCHKSFSQSSHLVTHQRTHTGERPFKCENCGKGFADSSALIKHQRIHTGERPYKCGECGKSFNQSSHFITHQRIHLGDRPYRCPECGKTFNQRSHFLTHQRTHTGEKPFHCSKCNKSFRQKAHLLCHQNTHLI
B2: Carboxy-terminal domain RNA polymerase II polypeptide A small phosphatase 1 (Homo sapiens), Q9GZU7 (parent)
chain: MDSSAVITQISKEEARGPLRGKGDQKSAASQKPRSRGILHSLFCCVCRDDGEALPAHSGAPLLVEENGAIPKQTPVQYLLPEAKAQDSDKICVVIDLDETLVHSSFKPVNNADFIIPVEIDGVVHQVYVLKRPHVDEFLQRMGELFECVLFTASLAKYADPVADLLDKWGAFRARLFRESCVFHRGNYVKDLSRLGRDLRRVLILDNSPASYVFHPDNAVPVASWFDNMSDTELHDLLPFFEQLSRVDDVYSVLRQPRPGS
partner: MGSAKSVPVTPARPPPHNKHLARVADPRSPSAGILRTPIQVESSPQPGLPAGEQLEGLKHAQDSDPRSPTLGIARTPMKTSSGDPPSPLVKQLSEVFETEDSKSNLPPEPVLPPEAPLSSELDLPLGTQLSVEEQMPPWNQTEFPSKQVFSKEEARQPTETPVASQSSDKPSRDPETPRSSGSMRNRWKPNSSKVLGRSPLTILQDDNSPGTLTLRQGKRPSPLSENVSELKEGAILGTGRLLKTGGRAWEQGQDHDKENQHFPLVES
B3: Src kinase-associated phosphoprotein 1 (Homo sapiens), Q86WV1 (parent)
chain: MQAAALPEEIRWLLEDAEEFLAEGLRNENLSAVARDHRDHILRGFQQIKARYYWDFQPQGGDIGQDSSDDNHSGTLGLSLTSDAPFLSDYQDEGMEDIVKGAQELDNVIKQGYLEKKSKDHSFFGSEWQKRWCVVSRGLFYYYANEKSKQPKGTFLIKGYGVRMAPHLRRDSKKESCFELTSQDRRSYEFTATSPAEARDWVDQISFLLKDLSSLTIPYEEDEEEEEKEETYDDIDGFDSPSCGSQCRPTILPGSVGIKEPTEEKEEEDIYEVLPDEEHDLEEDESGTRRKGVDYASYYQGLWDCHGDQPDELSFQRGDLIRILSKEYNMYGWWVGELNSLVGIVPKEYLTTAFEVEER
B4: Isoform 1 of 1-aminocyclopropane-1-carboxylate synthase-like protein 1 (Homo sapiens), Q96QU6-1 (parent)
chain: MFTLPQKDFRAPTTCLGPTCMQDLGSSHGEDLEGECSRKLDQKLPELRGVGDPAMISSDTSYLSSRGRMIKWFWDSAEEGYRTYHMDEYDEDKNPSGIINLGTSENKLCFDLLSWRLSQRDMQRVEPSLLQYADWRGHLFLREEVAKFLSFYCKSPVPLRPENVVVLNGGASLFSALATVLCEAGEAFLIPTPYYGAITQHVCLYGNIRLAYVYLDSEVTGLDTRPFQLTVEKLEMALREAHSEGVKVKGLILISPQNPLGDVYSPEELQEYLVFAKRHRLHVIVDEVYMLSVFEKSVGYRSVLSLERLPDPQRTHVMWATSKDFGMSGLRFGTLYTENQDVATAVASLCRYHGLSGLVQYQMAQLLRDRDWINQVYLPENHARLKAAHTYVSEELRALGIPFLSRGAGFFIWVDLRKYLPKGTFEEEMLLWRRFLDNKVLLSFGKAFECKEPGWFRFVFSDQVHRLCLGMQRVQQVLAGKSQVAEDPRPSQSQEPSDQRR
partner: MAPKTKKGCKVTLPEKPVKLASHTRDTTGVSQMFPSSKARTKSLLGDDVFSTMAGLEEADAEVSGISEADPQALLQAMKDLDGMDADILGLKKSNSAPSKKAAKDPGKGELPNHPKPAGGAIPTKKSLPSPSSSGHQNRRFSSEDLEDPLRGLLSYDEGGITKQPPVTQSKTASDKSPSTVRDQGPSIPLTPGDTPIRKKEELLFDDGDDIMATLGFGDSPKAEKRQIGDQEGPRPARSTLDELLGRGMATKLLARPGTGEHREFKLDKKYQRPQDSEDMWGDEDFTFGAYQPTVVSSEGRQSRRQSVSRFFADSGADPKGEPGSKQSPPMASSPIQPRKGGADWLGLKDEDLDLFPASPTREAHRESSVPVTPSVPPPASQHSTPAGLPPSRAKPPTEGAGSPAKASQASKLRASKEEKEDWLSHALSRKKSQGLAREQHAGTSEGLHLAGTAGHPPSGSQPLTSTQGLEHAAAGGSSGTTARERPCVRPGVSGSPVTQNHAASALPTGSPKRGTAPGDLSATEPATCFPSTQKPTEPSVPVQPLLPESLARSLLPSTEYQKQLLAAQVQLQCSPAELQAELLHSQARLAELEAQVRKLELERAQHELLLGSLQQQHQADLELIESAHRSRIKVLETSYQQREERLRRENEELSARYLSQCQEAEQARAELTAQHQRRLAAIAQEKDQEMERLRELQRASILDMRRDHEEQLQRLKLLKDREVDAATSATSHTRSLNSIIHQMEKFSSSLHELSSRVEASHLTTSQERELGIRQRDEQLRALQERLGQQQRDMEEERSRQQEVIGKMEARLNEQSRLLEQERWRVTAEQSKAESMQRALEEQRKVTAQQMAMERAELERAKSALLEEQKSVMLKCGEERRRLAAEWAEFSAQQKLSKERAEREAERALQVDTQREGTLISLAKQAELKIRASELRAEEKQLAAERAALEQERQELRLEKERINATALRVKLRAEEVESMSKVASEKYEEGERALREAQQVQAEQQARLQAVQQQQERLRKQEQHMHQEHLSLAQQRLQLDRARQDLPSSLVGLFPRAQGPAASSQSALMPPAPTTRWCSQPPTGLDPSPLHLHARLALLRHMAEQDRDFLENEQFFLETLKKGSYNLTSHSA
B5: Pachytene checkpoint protein 2 homolog (Homo sapiens), Q15645 (parent)
chain: MDEAVGDLKQALPCVAESPTVHVEVHQRGSSTAKKEDINLSVRKLLNRHNIVFGDYTWTEFDEPFLTRNVQSVSIIDTELKVKDSQPIDLSACTVALHIFQLNEDGPSSENLEEETENIIAANHWVLPAAEFHGLWDSLVYDVEVKSHLLDYVMTTLLFSDKNVNSNLITWNRVVLLHGPPGTGKTSLCKALAQKLTIRLSSRYRYGQLIEINSHSLFSKWFSESGKLVTKMFQKIQDLIDDKDALVFVLIDEVESLTAARNACRAGTEPSDAIRVVNAVLTQIDQIKRHSNVVILTTSNITEKIDVAFVDRADIKQYIGPPSAAAIFKIYLSCLEELMKCQIIYPRQQLLTLRELEMIGFIENNVSKLSLLLNDISRKSEGLSGRVLRKLPFLAHALYVQAPTVTIEGFLQALSLAVDKQFEERKKLAAYI
B6: Serine/threonine-protein phosphatase 2A activator (Homo sapiens), Q15257 (parent)
chain: MAEGERQPPPDSSEEAPPATQNFIIPKKEIHTVPDMGKWKRSQAYADYIGFILTLNEGVKGKKLTFEYRVSEMWNEVHEEKEQAAKQSVSCDECIPLPRAGHCAPSEAIEKLVALLNTLDRWIDETPPVDQPSRFGNKAYRTWYAKLDEEAENLVATVVPTHLAAAVPEVAVYLKESVGNSTRIDYGTGHEAAFAAFLCCLCKIGVLRVDDQIAIVFKVFNRYLEVMRKLQKTYRMEPAGSQGVWGLDDFQFLPFIWGSSQLIDHPYLEPRHFVDEKAVNENHKDYMFLECILFITEMKTGPFAEHSNQLWNISAVPSWSKVNQGLIRMYKAECLEKFPVIQHFKFGSLLPIHPVTSG
B7: Gem-associated protein 6 (Homo sapiens), Q8WXD5 (parent)
chain: MSEWMKKGPLEWQDYIYKEVRVTASEKNEYKGWVLTTDPVSANIVLVNFLEDGSMSVTGIMGHAVQTVETMNEGDHRVREKLMHLFTSGDCKAYSPEDLEERKNSLKKWLEKNHIPITEQGDAPRTLCVAGVLTIDPPYGPENCSSSNEIILSRVQDLIEGHLTASQ

Variants of: B1
Conditions: with ldoc1_human LDOC1, O95751
Chain of ldoc1_human LDOC1, O95751 (O95751 whole entry): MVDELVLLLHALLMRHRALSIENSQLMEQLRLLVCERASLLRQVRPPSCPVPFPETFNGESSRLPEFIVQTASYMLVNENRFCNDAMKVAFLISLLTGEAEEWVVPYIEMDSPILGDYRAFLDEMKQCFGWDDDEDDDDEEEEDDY

Variant | effect of a mutation on the interaction
R469C | disrupting interaction strength

Variants of: B2
Conditions: with cdca3_human CDCA3, Q99618

Variant | effect of a mutation on the interaction
H57D | with no effect
A56T | with no effect

Variants of: B3
Conditions: with pram_human PRAM1, Q96QH2
Chain of pram_human PRAM1, Q96QH2 (Q96QH2 whole entry): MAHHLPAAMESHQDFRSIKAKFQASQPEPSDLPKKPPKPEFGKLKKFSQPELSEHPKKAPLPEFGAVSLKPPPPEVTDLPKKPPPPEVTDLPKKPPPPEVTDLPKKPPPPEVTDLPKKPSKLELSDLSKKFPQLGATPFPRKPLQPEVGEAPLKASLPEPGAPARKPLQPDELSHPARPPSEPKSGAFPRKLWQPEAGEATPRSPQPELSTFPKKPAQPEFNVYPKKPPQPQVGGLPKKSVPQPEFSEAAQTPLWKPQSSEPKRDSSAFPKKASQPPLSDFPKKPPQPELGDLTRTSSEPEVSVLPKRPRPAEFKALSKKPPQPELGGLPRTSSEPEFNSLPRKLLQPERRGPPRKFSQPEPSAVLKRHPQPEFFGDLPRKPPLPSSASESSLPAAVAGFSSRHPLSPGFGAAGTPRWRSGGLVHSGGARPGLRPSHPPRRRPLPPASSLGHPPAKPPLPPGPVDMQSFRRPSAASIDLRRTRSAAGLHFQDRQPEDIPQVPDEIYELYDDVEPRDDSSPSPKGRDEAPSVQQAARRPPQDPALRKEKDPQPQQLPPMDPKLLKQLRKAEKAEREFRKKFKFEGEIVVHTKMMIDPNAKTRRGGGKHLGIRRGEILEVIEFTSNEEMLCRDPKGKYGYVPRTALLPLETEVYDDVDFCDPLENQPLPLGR

Variant | effect of a mutation on the interaction
G161S | with no effect

Variants of: B3
Conditions: with eeig1_human EEIG1, Q5T9C2
Chain of eeig1_human EEIG1, Q5T9C2 (Q5T9C2 whole entry): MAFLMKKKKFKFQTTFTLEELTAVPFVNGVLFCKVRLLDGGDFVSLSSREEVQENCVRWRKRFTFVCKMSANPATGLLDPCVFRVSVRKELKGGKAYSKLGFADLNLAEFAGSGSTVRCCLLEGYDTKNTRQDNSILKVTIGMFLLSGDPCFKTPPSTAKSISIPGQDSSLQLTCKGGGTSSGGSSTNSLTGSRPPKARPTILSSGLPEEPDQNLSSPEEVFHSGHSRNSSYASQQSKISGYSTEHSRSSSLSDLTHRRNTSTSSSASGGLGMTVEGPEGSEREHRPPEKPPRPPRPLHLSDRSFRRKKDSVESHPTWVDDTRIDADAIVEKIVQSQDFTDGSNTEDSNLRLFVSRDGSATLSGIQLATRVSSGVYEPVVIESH

Variant | effect of a mutation on the interaction
S242G | with no effect

Variants of: B4
Conditions: with fbf1_human FBF1, Q8TES7

Variant | effect of a mutation on the interaction
S393L | with no effect

Variants of: B4
Conditions: with fbf1_human FBF1, Q8TES7
Remark: another data set of the same source

Variant | effect of a mutation on the interaction
D59N | with no effect

Variants of: B5
Conditions: with meak7_human MEAK7, Q6P9B6
Chain of meak7_human MEAK7, Q6P9B6 (Q6P9B6 whole entry): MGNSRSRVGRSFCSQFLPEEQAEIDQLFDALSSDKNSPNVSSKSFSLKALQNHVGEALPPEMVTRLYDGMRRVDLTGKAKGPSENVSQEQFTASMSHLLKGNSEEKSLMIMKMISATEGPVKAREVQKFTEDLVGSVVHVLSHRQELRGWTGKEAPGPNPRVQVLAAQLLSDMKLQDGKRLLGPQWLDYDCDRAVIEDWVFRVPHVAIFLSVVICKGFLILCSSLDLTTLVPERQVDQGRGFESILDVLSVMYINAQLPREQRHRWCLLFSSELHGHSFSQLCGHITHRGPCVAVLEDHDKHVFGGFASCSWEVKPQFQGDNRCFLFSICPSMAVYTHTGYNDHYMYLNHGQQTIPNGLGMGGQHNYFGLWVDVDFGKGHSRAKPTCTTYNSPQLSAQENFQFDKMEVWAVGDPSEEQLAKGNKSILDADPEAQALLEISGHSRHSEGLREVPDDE

Variant | effect of a mutation on the interaction
G409E | with no effect

Variants of: B5
Conditions: with fnd3b_human FNDC3B

Variant | effect of a mutation on the interaction
G409E | with no effect

Variants of: B6
Conditions: with amot_human AMOT

Variant | effect of a mutation on the interaction
K218T | with no effect

Variants of: B7
Conditions: with gemi7_human GEMIN7, Q9H840
Chain of gemi7_human GEMIN7, Q9H840 (Q9H840 whole entry): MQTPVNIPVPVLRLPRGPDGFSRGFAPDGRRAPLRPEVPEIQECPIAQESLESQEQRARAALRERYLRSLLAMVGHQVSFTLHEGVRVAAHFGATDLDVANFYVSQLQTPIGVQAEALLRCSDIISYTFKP

Variant | effect of a mutation on the interaction
C91G | with no effect
G8S | with no effect
S25N | with no effect

— IntAct's records for PubMed 31515488
